Assay [1] deals with hemagglutinin H3 (GM3 inhibition ELISA, strain not stated).
The target in assay [2] is hemagglutinin (HA) of influenza virus type A subtype H3 A/Wuhan/359/95 (H3N2), ether extract (influenza virus type A, A/Wuhan/359/95 (H3N2)).
For assay [3] the target is unchanged. Kind of assay: phage ELISA, HA immobilised on plate, normalised to A-1 = 1. (In general: An ELISA detects its analyte on a solid surface through an enzyme-linked reagent.)
Assay [4] addresses hemagglutinin (HA) of influenza virus type A subtype H1 A/PR/8/34 (H1N1), ether extract (influenza virus type A, A/PR/8/34 (H1N1)), P03452. The description is as above.

Four molecules from patent publication US20100119588A1 can be followed below.

No end group written: not given here.

In the case of ARLSPTMVHPNGAQP-NH2 [A-1 peptide, chemosynthesized, …-NH2], in assay [1], the IC50 was found to be 1.9 mM.

In assay [2], ARLPRTMVHPKPAQP-NH2 [s-2 peptide, chemosynthesized, …-NH2] registered a fold binding relative to A-1 of 2.1 fold.

Turning to ARLPRTMVHPKPAQP (modifications not checked) [filamentous phage fd presenting peptide s-2 (SEQ ID NO: 3)], the fold binding activity relative to A-1 in assay [3] and in assay [4] was 3 fold each time.

The molecule ARLPPTMVRPNGPQP-NH2 [e-1 peptide, chemosynthesized, …-NH2] returned a fold binding relative to A-1 in assay [2] of 1.2 fold.

The term IC50 denotes the point on the concentration scale where inhibition reaches its midpoint.
